The text below walks through data of patent US20260116966A1 (KEYMED BIOSCIENCES CHENGDU, published 2026).

Changes are numbered by the printed parent chain. Bounds are passed on as bounds.

In assay [1] the target is T1, human GPRC5D (human, UniProt Q9NZD1 1-345). Kind of assay: cell-based or functional assay.
The target of assay [2] is T2, CD3 receptor on the surface of Jurkat cells (human, UniProt P07766 23-207). Kind of assay: cell-based or functional assay.
The target of assay [3] is T1, human GPRC5D. Description: cell-based or functional assay. The source holds these as a separate data set.
Assay [4] deals with T1, human GPRC5D. Kind of assay: flow cytometry, MM.1R cells.
Experimental: The cell suspension of MM.1R cells in logarithmic growth phase was adjusted to a concentration of 5×10⁵ cells/mL, and 100 μL per well was added to a 96-well U-shaped plate, and centrifuged at 300 g for 5 min. The supernatant was discarded. […] The primary antibody was washed away, and 50 μL/well Alexa Fluro647 labeled goat anti-human IgG FC (1:300 dilution) was added, and incubated on ice for 20 min. After washing once, 50 μL/well of PI was added, incubated for 5 min, and detected by flow cytometry.
Assay [5] has as its target T2, CD3 receptor on the surface of Jurkat …. Description: flow cytometry, Jurkat cells. On the technique in general: A flow cytometer gives signals particle by particle.
Experimental: The cell concentration was adjusted with 4% calf serum to 5×10⁵ cells/mL. 100 μL per well was added to a 96-well U-shaped plate, and centrifuged at 300 g. The supernatant was removed. […] The secondary antibody 50 μL/well of Alexa Fluro647 labeled goat anti-human IgG Fc (1:300 dilution) was added, and incubated on ice for 20 min. After washing once, 50 μL/well of PI was added, incubated for 5 min, and detected by flow cytometry.
The target in assay [6] is T1, human GPRC5D. Description: flow cytometry, HEK293-hGPRC5D cells.
Experimental: (§1) HEK293-hGPRC5D and HEK293-cyGPRC5D stably transfected cells in logarithmic growth phase were respectively adjusted to a cell density of 5×10⁵ cells/mL. Then, 100 μl/well of the cell suspension was added to a 96-well U-shaped plate, and centrifuged at 300 g for 5 min. The supernatant was discarded. […] The secondary antibody 50 μL/well of Alexa Fluro647 labeled goat anti-human IgG Fe (1:300 dilution) was added, and incubated on ice for 20 min. After washing once, 50 μL/well of PI solution (1:300) was added, incubated for 5 min, and detected by flow cytometry.
For assay [7], the target named is T1, human GPRC5D. Description: flow cytometry, HEK293-hGPRC5D cells. This is another data set of the same source.
Experimental: Cell suspensions of HEK293-hGPRC5D and HEK293-hBCMA stably transfected cells in logarithmic growth phase were adjusted to 5×10⁵ cells/ml. Then, 100 μl/well of the cell suspension was added to a 96-well U-shaped plate, and centrifuged at 300 g for 5 min. The supernatant was discarded. 100 μL per well of serially diluted antibody was added, and incubated at 4° C. for 60 min. The secondary antibody 50 μL/well of Alexa Fluro647 labeled goat anti-human IgG Fc (1:300 dilution) was added, and incubated on ice for 20 min. After washing once, 50 μL/well of PI solution was added, incubated for 5 min, and detected by flow cytometry.
The target of assay [8] is T3, Cynomolgus GPRC5D (Cynomolgus, UniProt Q9NZD1 1-343 (human entry)).
T3 construct: Full length, on stably transfected cells (HEK293-cyGPRC5D, CHO-cyGPRC5D); also called cyGPRC5D
T3 chain: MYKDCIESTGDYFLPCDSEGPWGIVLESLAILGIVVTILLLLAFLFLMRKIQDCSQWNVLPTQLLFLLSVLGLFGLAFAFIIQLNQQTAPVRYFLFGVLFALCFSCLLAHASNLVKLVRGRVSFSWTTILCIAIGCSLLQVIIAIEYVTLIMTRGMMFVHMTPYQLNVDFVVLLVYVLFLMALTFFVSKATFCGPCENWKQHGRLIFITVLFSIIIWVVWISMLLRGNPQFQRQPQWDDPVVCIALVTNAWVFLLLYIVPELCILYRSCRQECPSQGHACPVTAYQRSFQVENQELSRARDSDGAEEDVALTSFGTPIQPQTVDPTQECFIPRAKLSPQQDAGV
Kind of assay: flow cytometry, HEK293-cyGPRC5D cells.
Experimental: as §1

The target in assay [9] is T3, Cynomolgus GPRC5D. Kind of assay: flow cytometry, HEK293-cyGPRC5D cells against HEK293-hGPRC5D cells.
Experimental: as §1
Assay [10] addresses T4, human BCMA on HEK293-hBCMA cells (human, UniProt Q02223 1-184).
T4 sequence (looked up): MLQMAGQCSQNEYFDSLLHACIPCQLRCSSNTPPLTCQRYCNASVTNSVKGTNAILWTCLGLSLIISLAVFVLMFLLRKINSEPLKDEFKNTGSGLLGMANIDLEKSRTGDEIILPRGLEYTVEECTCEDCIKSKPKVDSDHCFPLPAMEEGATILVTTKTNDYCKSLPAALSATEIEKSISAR
Kind of assay: cell-based or functional assay.

Assay [11] has as its target T4, human BCMA on HEK293-hBCMA cells. Description: flow cytometry, HEK293-hBCMA cells.
The target in assay [12] is T5, biotinylated BCMA recombinant antigen (Homo sapiens (Human), UniProt Q02223 1-54, Biotinylated; site and chemistry not stated. The letters do not carry the biotin.).
T5 sequence: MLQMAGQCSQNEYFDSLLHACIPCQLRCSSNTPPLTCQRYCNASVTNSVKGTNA
Kind of assay: BLI, biotinylated antigen on SA probe, antibody as analyte. For orientation: Biolayer interferometry detects binding as a change in optical thickness at a sensor tip.

The target of assay [13] is T6, biotinylated CD3 recombinant antigen (CD3εγ) (Homo sapiens (Human), UniProt P07766 23-126; P09693 23-116, Biotinylated; site and chemistry not stated. The letters do not carry the biotin.).
T6 construct: also called CD3e antigen; copies: 1 + 1
T6 sequence (P07766 23-126 limits assumed, chain 1 of 2): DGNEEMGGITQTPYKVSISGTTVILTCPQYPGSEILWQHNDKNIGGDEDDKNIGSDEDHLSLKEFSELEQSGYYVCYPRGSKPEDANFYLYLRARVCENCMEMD
T6 sequence (P09693 23-116 limits assumed, chain 2 of 2): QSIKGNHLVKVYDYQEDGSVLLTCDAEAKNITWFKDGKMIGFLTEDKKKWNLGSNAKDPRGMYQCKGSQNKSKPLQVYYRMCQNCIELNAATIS
The description is as above.

T1 sequence (Q9NZD1 whole entry): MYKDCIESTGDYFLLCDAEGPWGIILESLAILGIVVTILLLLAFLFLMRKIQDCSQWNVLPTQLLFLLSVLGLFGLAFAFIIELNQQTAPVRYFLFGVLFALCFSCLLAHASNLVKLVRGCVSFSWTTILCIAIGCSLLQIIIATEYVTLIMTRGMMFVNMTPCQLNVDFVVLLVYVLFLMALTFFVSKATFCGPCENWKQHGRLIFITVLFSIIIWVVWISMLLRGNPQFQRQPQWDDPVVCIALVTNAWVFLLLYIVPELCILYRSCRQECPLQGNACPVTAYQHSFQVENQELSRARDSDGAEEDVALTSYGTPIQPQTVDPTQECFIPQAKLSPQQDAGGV
T2 sequence (P07766 23-207): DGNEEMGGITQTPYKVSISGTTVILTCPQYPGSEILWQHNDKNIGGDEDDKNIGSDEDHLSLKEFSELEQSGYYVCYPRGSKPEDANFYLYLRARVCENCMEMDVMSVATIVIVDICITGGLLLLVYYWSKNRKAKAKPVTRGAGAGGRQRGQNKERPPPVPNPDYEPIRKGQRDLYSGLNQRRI

B1: 2F1 × CD3 H4K5 GPRC5D×CD3 κλ bispecific antibody variant (bispecific antibody, human IgG4 S228P, kappa, lambda)
heavy 1: QVQLVQSGAEVKKPGSSVKVSCKASGYSFTGYTMNWVREAPGQGLEWMGLINPYNGGTRYNQKFQGRVTITADESTSTAYMELSSLRSEDTAVYYCARWALRYGMDYWGQGTLVTVSSASTKGPSVFPLAPCSRSTSESTAALGCLVKDYFPEPVTVSWNSGALTSGVHTFPAVLQSSGLYSLSSVVTVPSSSLGTKTYTCNVDHKPSNTKVDKRVESKYGPPCPPCPAPEFEGGPSVFLFPPKPKDTLMISRTPEVTCVVVDVSQEDPEVQFNWYVDGVEVHNAKTKPREEQFNSTYRVVSVLTVLHQDWLNGKEYKCKVSNKGLASSIEKTISKAKGQPREPQVCTLPPSQEEMTKNQVSLSCAVKGFYPSDIAVEWESNGQPENNYKTTPPVLDSDGSFFLVSKLTVDKSRWQEGNVFSCSVMHEALHNHYTQKSLSLSLGK
light 1: DIQMTQSPSSLSASVGDRVTITCQASQNVGTNVAWYQKKPGQAPKALIYSASYLNSGVPSRFSGSGSGTDFTFTISSLQPEDIATYFCQQYNSYLLTFGGGTKVEIKRTVAAPSVFIFPPSDEQLKSGTASVVCLLNNFYPREAKVQWKVDNALQSGNSQESVTEQDSKDSTYSLSSTLTLSKADYEKHKVYACEVTHQGLSSPVTKSFNRGEC
heavy 2: EVQLVESGGGLVQPGGSLRLSCAASGFTFNTYAMNWVRKAPGKGLEWVGRIRSKYNNYATYYADSVKDRFTISRDDSKNSLYLQMNSLKTEDTAVYYCVRHGNFGNSYVSWFAYWGQGTLVTVSSASTKGPSVFPLAPCSRSTSESTAALGCLVKDYFPEPVTVSWNSGALTSGVHTFPAVLQSSGLYSLSSVVTVPSSSLGTKTYTCNVDHKPSNTKVDKRVESKYGPPCPPCPAPEFEGGPSVFLFPPKPKDTLMISRTPEVTCVVVDVSQEDPEVQFNWYVDGVEVHNAKTKPREEQFNSTYRVVSVLTVLHQDWLNGKEYKCKVSNKGLASSIEKTISKAKGQPREPQVYTLPPCQEEMTKNQVSLWCLVKGFYPSDIAVEWESNGQPENNYKTTPPVLDSDGSFFLYSKLTVDKSRWQEGNVFSCSVMHEALHNHYTQKSLSLSLGK
light 2: QAVVTQEPSLTVSPGGTVTLTCRSSTGAVTTSNYANWVQEKPGQAPRGLIGGTNKRAPWTPARFSGSLLGGKAALTITGAQAEDEAEYYCVLWYSNLWVFGGGTKLTVLGQPKAAPSVTLFPPSSEELQANKATLVCLISDFYPGAVTVAWKADSSPVKAGVETTTPSKQSNNKYAASSYLSLTPEQWKSHRSYSCQVTHEGSTVEKTVAPTECS
notes: also called h2F1 H4K5
With B1, the “TDCC, EC50 (nM), MM.1R” value in the assay with human GPRC5D [1] came out at 0.008 nM. Also, the “Jurkat-NFAT-luc, EC50” value in [2] was 0.662 nM. For the same molecule, the “TDCC EC50 (nM), HEK293-hGPRC5D” value with human GPRC5D [3] stood at 0.014 nM. In addition, in the assay with human GPRC5D [3], the “TDCC EC50 (nM), MM.1S” value is 0.017 nM. The “TDCC EC50 (nM), NCI-H929” value with human GPRC5D [3] worked out at 0.036 nM. Also, the EC50 (commonly the concentration that produces a half-maximal response) with human GPRC5D [4] stood at 15.7 nM; in assay [5], 1.9 nM; in the assay with human GPRC5D [6], 2.8 nM; with human GPRC5D [7], 8.4 nM; in the assay with Cynomolgus GPRC5D [8], 12.8 nM. Further, in the assay with Cynomolgus GPRC5D [9], the “fold difference of affinity, Cynomolgus GPRC5D against human GPRC5D” value is less than 5 fold.

B2: BCMA × CD3 κλ005 bispecific antibody (bispecific antibody, human IgG4 S228P, kappa, lambda)
heavy 1: QVQLVQSGSELKKPGASVKVSCKASGYIFTNFGMNWVREAPGQGLEWMGWINTYTGEQIYADGFTGRFVFSLDTSVSTAYLQISSLKAEDTAVYFCARGEIYYGYDVGFVYWGQGTLVTVSS
light 1: DIVLTQSPASLAVSPGQRATITCRASKSVSTSGYSYMHWYQKKPGQPPKLLIYLASNLESGVPARFSGSGSGTDFTLTINPVEAEDTANYYCQHSRELPWTFGQGTKVEIKRTVAAPSVFIFPPSDEQLKSGTASVVCLLNNFYPREAKVQWKVDNALQSGNSQESVTEQDSKDSTYSLSSTLTLSKADYEKHKVYACEVTHQGLSSPVTKSFNRGEC
heavy 2: B1 heavy 2
light 2: B1 light 2
notes: they are not tied to the name κλ005 in one sentence; also called BCMA×CD3 bispecific antibody
In the case of B2, the “TDCC EC50 (nM), HEK293-hBCMA” value in assay [10] came out at 0.015 nM. Moreover, the EC50 in assay [11] stood at 1.9 nM. Also, the Kd (as a rule, a measure of binding affinity in units of concentration) in assay [12] was determined as 1.1 nM; in assay [13], 45.4 nM.

B3: 2F1 × CD3 H4K7 GPRC5D×CD3 κλ bispecific antibody variant (bispecific antibody, human IgG4 S228P, kappa, lambda)
heavy 1: B1 heavy 1
light 1: B1 light 1 with L54R
heavy 2: B1 heavy 2
light 2: B1 light 2
notes: also called h2F1 H4K7
In the case of B3, the “TDCC, EC50 (nM), MM.1R” value with human GPRC5D [1] was 0.009 nM. Further, the “Jurkat-NFAT-luc, EC50” value in assay [2] is 0.774 nM. Also, the EC50 with human GPRC5D [4] is 10.2 nM; in assay [5], 7.2 nM; with human GPRC5D [6], 2.3 nM; in the assay with Cynomolgus GPRC5D [8] it was 6.6 nM. In the assay with Cynomolgus GPRC5D [9], the “fold difference of affinity, Cynomolgus GPRC5D against human GPRC5D” value is less than 5 fold.
